This is an account of results in the supplement of paper PMC5998384.

Data set [1] deals with HeLa Kyoto. The data set can be described thus: solubility change mitosis vs G1/S (difference of NP-40 vs SDS log2 ratios) (log2 ratio difference); higher = more soluble in mitosis.
Data set [2] relates to HeLa Kyoto. The data set can be described thus: melting temperature (median over replicates), in situ; higher = more thermally stable.
For data set [3], the system named is HeLa Kyoto. In words: thermal stability score vs G1/S (z-score of summed log2 fold changes over temperatures); higher = more thermally stable than in G1/S.
Data set [4] relates to HeLa Kyoto. The data set can be described thus: solubility in G1/S (NP-40 vs SDS abundance) (log2 ratio); higher = more soluble. Particulars: cell cycle stage: G1/S.
The mark [5] stands for this setting: cell cycle stage: early G1 (4.5 h after nocodazole release).
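For melting temperature (median over replicates), in situ in this document: HeLa Kyoto cells synchronized by double thymidine or nocodazole block, proteins quantified by TMT10plex mass spectrometry, three independent biological replicates.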
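For solubility change mitosis vs G1/S (difference of NP-40 vs SDS log2 ratios) in this document: synchronized HeLa Kyoto cells (double thymidine block for G1/S, nocodazole release for mitosis), protein amounts in NP-40 versus SDS lysates quantified by mass spectrometry, three biological replicates.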
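For solubility in G1/S (NP-40 vs SDS abundance) in this document: HeLa Kyoto cells arrested at G1/S by double thymidine block, proteins quantified by TMT10plex mass spectrometry in mild NP-40 versus SDS extracts, three biological replicates.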
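For thermal stability score vs G1/S (z-score of summed log2 fold changes over temperatures) in this document: synchronized HeLa Kyoto cells, proteins quantified by TMT10plex mass spectrometry, three biological replicates, mitosis taken 0.5 h after nocodazole release, G1/S directly after double thymidine block.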

With “MAPWGKRLAGVRGVLLDISGVLYDSGAGGGTAIAGSVEAVARLKRSRLKVRFCTNESQKSRAELVGQLQRLGFDISEQEVTAPAPAACQILKEQGLRPYLLIHDGVRSEFDQIDTSNPNCVVIADAGESFSYQNMNNAFQVLMELEKPVLISLGKGRYYKETSGLMLDVGPYMKALEYACGIKAEVVGKPSPEFFKSALQAIGVEAHQAVMIGDDIVGDVGGAQRCGMRALQVRTGKFRPSDEHHPEVKADGYVDNLAEAVDLLLQHADK [LHPP]”, in the data set with HeLa Kyoto [1], the “solubility change mitosis (log2)” value turned out to be 0.0085. Besides, the figures for the melting temperature in the data set with HeLa Kyoto [2] (cell cycle stage: G1/S) and in the data set with HeLa Kyoto [2] (cell cycle stage: mitosis) were 56.5 °C and 55.5 °C, respectively. Also, the thermal stability score was -1.67 in the data set on HeLa Kyoto [3] (setting [5]) and -2.15 in the data set on HeLa Kyoto [3] (cell cycle stage: mitosis). In addition, the “solubility in G1/S (log2)” value in the data set on HeLa Kyoto [4] was 0.392.
“MAQFVRNLVEKTPALVNAAVTYSKPRLATFWYYAKVELVPPTPAEIPRAIQSLKKIVNSAQTGSFKQLTVKEAVLNGLVATEVLMWFYVGEIIGKRGIIGYDV [ATP5L]”: the “solubility change mitosis (log2)” value in the data set with HeLa Kyoto [1] worked out at 0.0203. The melting temperature with HeLa Kyoto [2] (cell cycle stage: G1/S) was 55 °C; in the data set on HeLa Kyoto [2] (cell cycle stage: mitosis) it was 52.8 °C. Besides, the thermal stability score with HeLa Kyoto [3] (setting [5]) is -1.18; in the data set on HeLa Kyoto [3] (cell cycle stage: mitosis), -2.02. In addition, the “solubility in G1/S (log2)” value in the data set on HeLa Kyoto [4] is -0.573.
In the case of “MAQKKYLQAKLTQFLREDRIQLWKPPYTDENKKVGLALKDLAKQYSDRLECCENEVEKVIEEIRCKAIERGTGNDNYRTTGIATIEVFLPPRLKKDRKNLLETRLHITGRELRSKIAETFGLQENYIKIVINKKQLQLGKTLEEQGVAHNVKAMVLELKQSEEDARKNFQLEEEEQNEAKLKEKQIQRTKRGLEILAKRAAETVVDPEMTPYLDIANQTGRSIRIPPSERKALMLAMGYHEKGRAFLKRKEYGIALPCLLDADKYFCECCRELLDTVDNYAVLQLDIVWCYFRLEQLECLDDAEKKLNLAQKCFKNCYGENHQRLVHIKGNCGKEKVLFLRLYLLQGIRNYHSGNDVEAYEYLNKARQLFKELYIDPSKVDNLLQLGFTAQEARLGLRACDGNVDHAATHITNRREELAQIRKEEKEKKRRRLENIRFLKGMGYSTHAAQQVLHAASGNLDEALKILLSNPQMWWLNDSNPETDNRQESPSQENIDRLVYMGFDALVAEAALRVFRGNVQLAAQTLAHNGGSLPPELPLSPEDSLSPPATSPSDSAGTSSASTDEDMETEAVNEILEDIPEHEEDYLDSTLEDEEIIIAEYLSYVENRKSATKKN [NUB1]”, the “solubility change mitosis (log2)” value with HeLa Kyoto [1] is -0.203. Further, the melting temperature with HeLa Kyoto [2] (cell cycle stage: G1/S) stood at 47.9 °C; with HeLa Kyoto [2] (cell cycle stage: mitosis), 50.3 °C. Also, the thermal stability score amounted to 1.06 in the data set with HeLa Kyoto [3] (setting [5]) and 1.85 in the data set on HeLa Kyoto [3] (cell cycle stage: mitosis). The “solubility in G1/S (log2)” value in the data set with HeLa Kyoto [4] was -0.169.
In the case of “MAQPGPASQPDVSLQQRVAELEKINAEFLRAQQQLEQEFNQKRAKFKELYLAKEEDLKRQNAVLQAAQDDLGHLRTQLWEAQAEMENIKAIATVSENTKQEAIDEVKRQWREEVASLQAVMKETVRDYEHQFHLRLEQERTQWAQYRESAEREIADLRRRLSEGQEEENLENEMKKAQEDAEKLRSVVMPMEKEIAALKDKLTEAEDKIKELEASKVKELNHYLEAEKSCRTDLEMYVAVLNTQKSVLQEDAEKLRKELHEVCHLLEQERQQHNQLKHTWQKANDQFLESQRLLMRDMQRMEIVLTSEQLRQVEELKKKDQEDDEQQRLNKRKDHKKADVEEEIKIPVVCALTQEESSAQLSNEEEHLDSTRGSVHSLDAGLLLPSGDPFSKSDNDMFKDGLRRAQSTDSLGTSGSLQSKALGYNYKAKSAGNLDESDFGPLVGADSVSENFDTASLGSLQMPSGFMLTKDQERAIKAMTPEQEETASLLSSVTQGMESAYVSPSGYRLVSETEWNLLQKEVHNAGNKLGRRCDMCSNYEKQLQGIQIQEAETRDQVKKLQLMLRQANDQLEKTMKDKQELEDFIKQSSEDSSHQISALVLRAQASEILLEELQQGLSQAKRDVQEQMAVLMQSREQVSEELVRLQKDNDSLQGKHSLHVSLQQAEDFILPDTTEALRELVLKYREDIINVRTAADHVEEKLKAEILFLKEQIQAEQCLKENLEETLQLEIENCKEEIASISSLKAELERIKVEKGQLESTLREKSQQLESLQEIKISLEEQLKKETAAKATVEQLMFEEKNKAQRLQTELDVSEQVQRDFVKLSQTLQVQLERIRQADSLERIRAILNDTKLTDINQLPET [RABEP1]”, in the data set with HeLa Kyoto [1], the “solubility change mitosis (log2)” value is -0.0841. Besides, the melting temperature came to 51 °C with HeLa Kyoto [2] (cell cycle stage: G1/S) and 50.4 °C in the data set with HeLa Kyoto [2] (cell cycle stage: mitosis). The thermal stability score is -1 in the data set on HeLa Kyoto [3] (setting [5]) and -0.882 in the data set on HeLa Kyoto [3] (cell cycle stage: mitosis). In the data set on HeLa Kyoto [4], the “solubility in G1/S (log2)” value amounted to 0.412.
With “MAQPPPDVEGDDCLPAYRHLFCPDLLRDKVAFITGGGSGIGFRIAEIFMRHGCHTVIASRSLPRVLTAARKLAGATGRRCLPLSMDVRAPPAVMAAVDQALKEFGRIDILINCAAGNFLCPAGALSFNAFKTVMDIDTSGTFNVSRVLYEKFFRDHGGVIVNITATLGNRGQALQVHAGSAKAAVDAMTRHLAVEWGPQNIRVNSLAPGPISGTEGLRRLGGPQASLSTKVTASPLQRLGNKTEIAHSVLYLASPLASYVTGAVLVADGGAWLTFPNGVKGLPDFASFSAKL [DECR2]”, the “solubility change mitosis (log2)” value with HeLa Kyoto [1] is -0.232. Moreover, the melting temperature in the data set with HeLa Kyoto [2] (cell cycle stage: G1/S) came out at 51.9 °C; with HeLa Kyoto [2] (cell cycle stage: mitosis), 52.1 °C. The thermal stability score in the data set on HeLa Kyoto [3] (setting [5]) amounted to 1.32; in the data set with HeLa Kyoto [3] (cell cycle stage: mitosis) it was 0.657. For the same sequence, the “solubility in G1/S (log2)” value with HeLa Kyoto [4] was 0.0495.
